Source: the DeepSol protein solubility set

Test: soluble on expression in E. coli; label from the status in PepcDB or PDB records

MEAKKSNKIREIVKLQQLLKKWRKQAIASKAANNNNEDNNSSGGGSKSIKFLKRTLSFTDVTAVPKGYLAVSVGLEKKRYTIPTEYLSHQAFYVLLREAEEEFGFQQAGVLRIPCEVSVFESILKIMEEKNEGYLVTPITAKQECKFNAAADDKTSYQHPSDCPKTPSHQPHNSPMCR
soluble on expression in E. coli: soluble

MKPFCTVMANGEDITRTLMDYVLSIEITDEAEDKSDRITIELDDRARECDNGFLDIPLIGTIISVTLGYEGGKNRDMGAYLIDEISVSSPPQSLSVTGRAASMNTSYRTPKSQSYHQQTLGNIIQEIAERNGYTPKVDPALAKIVVRHIDQTSESDMAFATRLAEDYDAVAKPVDGKLVLAKRGEGKAITGETLPVVVIHEKLCSSWDFKYSARDEAGAANGLATEAGDDQKAAADAREPEEVEEGEDVIHMDESDAPNLPKAETEAKTPENQEQDEEKKGGVLASYHDIRTGEKKEVKVGKAPFHELKYTYHNQSEAVAAIAAYRNKSSRGKSSFSCDIGGDPFVQAEAKLVQEPPFRPYIPAEWRIKSVKHKLDKTGGYTTKIDCELFDETQEDAAGNVANTTPDKDDTLDPNAPPNACDEGEGVIHMDEEDR
soluble on expression in E. coli: not soluble

MDTNITWHTASVSKDERRVKNGHHSFVIWFTGLSASGKSTVANAVARKLFEKNIGNYVLDGDNIRHGLNKDLGFSESDRMENIRRIGEVAKLFVDQGAVVLTAFISPFRVDRKQVRDLLAVDEFIEVFVKCPIEECEKRDPKGLYKKARKGDIKEFTGIDSPYEEPEKAELIVETHKYSIEECAEQIVKYLQERSLI
soluble on expression in E. coli: not soluble

MGSDKIHHHHHHMTASLTALRAFDAAARNGSFRAAAADLNVTPTAISHHIRGLEDQLGVKLFRREGRDVALTDDGRRLADATNQAFGLLDNAVQSLRRSARKAVRVSAGPIFTARWLMPRISDFWEAHREIELEVVPAIHPGARDRENVDIVIRWDRIADMGRDAVKLLELSPVAIASEDFVAKRGPIDHPKDLLILPLLHQRNHWGWLDWFEAMGVSLADPLYGPIFEDANVLLRGAAEGQGAIIGWLPLIDQDLAEKRVVRVFDERIAPTHGYFVDVQHNSRARVEVRAVEDWLISQS
soluble on expression in E. coli: not soluble

MGSDKIHHHHHHMEVSEFCLEGRFINFVIKDGYKLKGLMLGTHEGEFYIKLAKQLRAAFDLRLPPGTWLQVVGYKKHDLKDGTITLKAERVMAARSEMGRVQTTTPVQEPPSIHNVKVKPAKAKATILVCQKSDCMKRGGKAVCQALEAALSDRGLEDQVTIKGTGCMKNCKAGPNLVMPDKTRHSRIQAAQVPRLMDKHFGDKSLEAQPENLREVAITNGKLC
soluble on expression in E. coli: not soluble

MKQKNENAPRPGGAGRKPKADPAVFRYSISFNAIDHARFLALFDQSGMRTKAHFITARIFGEPFKVIKIDKAAVEYYTRLTALYSQYRGIAVNYNQVVKALNTNFSEKKALAFLYKLEKATIELADLNRQIIELTREFETRWLQR
soluble on expression in E. coli: not soluble

GPGSMQSASSRVPRKPAAASNLGKPSSSGRFTKPNRPQPTSSFSKTAQPDMTGRYGTSTALVASTAASHFTAGARGQSTPFVGLADRTGQEGSVFGLRAPQNDATGAAAHTKTRQAARTKVVDDASTPVVVVGPERDSVPFRLCCEALAEGCVQTYMHLFELAHRDPVCVDTLSRKFFNVPDDRLAWVQQQLSAVEVLRRQSEFEQVFTHCEQLANYFEKEGDYAEAAWYHEMVLHYMMESLDRTLEQRARHVYATFQERQGHLEEAAALYDAMYRLAVALRDEATLQDASCCLVRVHQALGETLKFSDPAAAARHYATAAEAAVRSKNVVDEGSAYSALGDVSEARGDLPLALKYQRSCRAVAQQNDLKPQECRATLRVADLEERLGLKLEASTTLHEALQLAKELGAPRQLCIATMQLGEAYRSRNQEGEALQCFDESFAAAVEAGDQELIDTVRIAMGFARGDYYLTHAYGGKGYLHLVYTDIRAQLAWMSGGTL
soluble on expression in E. coli: not soluble

MNKERQDLSGLEAVWLFGYGSLIYKVDFPYLERAAASIQGWSRRFWQGSHDHRGTPEAPGRVLTLTETPGEECTGMAYKVSPDVFEHLDHREKNGYLRFTTPMSFRDGSQQEGLVYIATEDNEAFLGEATASEIASHIARSSGPSGPNAEYLVKLQLALQQLGVNDPHITQVYEALMADRASLEHHHHHH
soluble on expression in E. coli: soluble

VLSHCLETGFLTAYLALLVNFKPDVALKCGLYHDIGKADDENGKKNHTVTGAKIGDEFYFENDVKYTIANHHNKNVDNVYCRLTQIGDKLSAG
soluble on expression in E. coli: not soluble
